Consider 15 molecules from US20200377590A1 (Hoffmann-La Roche, published 2020).

T1: CD81 (UniProt P60033 1-236, limits assumed)
T1 construct: whole, on cells; also called CD81 receptor
T1 sequence (looked up): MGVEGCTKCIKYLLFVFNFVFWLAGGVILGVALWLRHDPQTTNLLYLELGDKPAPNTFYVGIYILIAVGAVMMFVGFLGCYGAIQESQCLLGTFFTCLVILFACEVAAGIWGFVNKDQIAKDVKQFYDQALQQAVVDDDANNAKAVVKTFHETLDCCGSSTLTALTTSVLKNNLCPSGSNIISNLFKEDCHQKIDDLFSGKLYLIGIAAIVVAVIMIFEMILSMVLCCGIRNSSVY

B1: CD81K04 HC CD81K04 / LC GG-06-hVK_1_39 (antibody, V domains shown)
VH: QVQLQQSGPELVKPGASVKISCKASGYTFSSSWMNWVKQRPGKGLEWIGRIYSGDGDAIYNGKFKGKATLTADKSSSTAYMQLSSLTSEDSAVYFCAREGKTGDLLLRSWGQGSALTVSS
VL: DIQMTQSPSSLSASVGDRVTITCRASKSVSTSIYSYLNWYQQKPGKAPKLLIYYASYLQSGVPSRFSGSGSGTDFTLTISSLQPEDFATYYCQHSREFPYTFGQGTKLEIK
notes: human constant region
B2: CD81K04 HC CD81K04 / LC GG-02-hVK_4_1 (antibody, V domains shown)
VH: QVQLQQSGPELVKPGASVKISCKASGYTFSSSWMNWVKQRPGKGLEWIGRIYSGDGDAIYNGKFKGKATLTADKSSSTAYMQLSSLTSEDSAVYFCAREGKTGDLLLRSWGQGSALTVSS
VL: DIVMTQSPDSLAVSLGERATINCKSSKSVSTSIYSYMHWYQQKPGQPPKLLIYYASYRESGVPDRFSGSGSGTDFTLTISSLQAEDVAVYYCQHSREFPFTFGQGTKLEIK
notes: human constant region
B3: CD81K04 HC CD81K04 / LC JA_GG-10-hVK_4_1 (antibody, V domains shown)
VH: QVQLQQSGPELVKPGASVKISCKASGYTFSSSWMNWVKQRPGKGLEWIGRIYSGDGDAIYNGKFKGKATLTADKSSSTAYMQLSSLTSEDSAVYFCAREGKTGDLLLRSWGQGSALTVSS
VL: DIVMTQSPDSLAVSLGERATINCRASKSVSTSIYSYMHWYQQKPGQPPKLLIKYASYLESGVPDRFSGSGSGTDFTLTISSLQAEDVAVYYCEHSREFPFTFGQGTKLEIK
notes: human constant region
B4: CD81K04 HC GG-01-hVH_5_51 / LC GG-02-hVK_4_1 (antibody, V domains shown)
VH: EVQLVQSGAEVKKPGESLKISCKGSGYSFSSSWMNWVRQMPGKGLEWMGRIYSGDGDAIYSPSFQGQVTISADKSISTAYLQLSSLKASDTAMYYCAREGKTGDLLLRSWGQGTLVTVSS
VL: DIVMTQSPDSLAVSLGERATINCKSSKSVSTSIYSYMHWYQQKPGQPPKLLIYYASYRESGVPDRFSGSGSGTDFTLTISSLQAEDVAVYYCQHSREFPFTFGQGTKLEIK
notes: human constant region
B5: CD81K04 HC GG-01-hVH_5_51 / LC GG-04-hVK_4_1 (antibody, V domains shown)
VH: EVQLVQSGAEVKKPGESLKISCKGSGYSFSSSWMNWVRQMPGKGLEWMGRIYSGDGDAIYSPSFQGQVTISADKSISTAYLQLSSLKASDTAMYYCAREGKTGDLLLRSWGQGTLVTVSS
VL: DIVMTQSPDSLAVSLGERATINCKSSKSVSTSIYSYLAWYQQKPGQPPKLLIYYASTRESGVPDRFSGSGSGTDFTLTISSLQAEDVAVYYCQHSREFPYTFGQGTKLEIK
notes: human constant region
B6: CD81K04 HC GG-01-hVH_5_51 / LC GG-03-hVK_4_1 (antibody, V domains shown)
VH: EVQLVQSGAEVKKPGESLKISCKGSGYSFSSSWMNWVRQMPGKGLEWMGRIYSGDGDAIYSPSFQGQVTISADKSISTAYLQLSSLKASDTAMYYCAREGKTGDLLLRSWGQGTLVTVSS
VL: DIVMTQSPDSLAVSLGERATINCKSSKSVSTSIYSYLAWYQQKPGQPPKLLIYYASYRESGVPDRFSGSGSGTDFTLTISSLQAEDVAVYYCQHSREFPFTFGQGTKLEIK
notes: human constant region
B7: CD81K04 HC JA_GG-14-hVH_1_3 / LC CD81K04 (antibody, V domains shown)
VH: QVQLVQSGAEVKKPGASVKVSCKASGYTFSSSWMNWVRQAPGQGLEWMGRIYSGDGDAIYNGKFKGRATITADTSASTAYMELSSLRSEDTAVYYCAREGKTGDLLLRSWGQGTLVTVSS
VL: DIVLTQSPASLSVSLGQRATISCRASKSVSTSIYSYMHWYQQKPGQPPKLLIKYASYLESGVPARFSGSGSGTDFTLNIHPVEEEDAATYYCEHSREFPFTFGTGTKLEIK
notes: human constant region
B8: CD81K04 HC CD81K04 / LC CD81K04 (antibody, V domains shown)
VH: QVQLQQSGPELVKPGASVKISCKASGYTFSSSWMNWVKQRPGKGLEWIGRIYSGDGDAIYNGKFKGKATLTADKSSSTAYMQLSSLTSEDSAVYFCAREGKTGDLLLRSWGQGSALTVSS
VL: DIVLTQSPASLSVSLGQRATISCRASKSVSTSIYSYMHWYQQKPGQPPKLLIKYASYLESGVPARFSGSGSGTDFTLNIHPVEEEDAATYYCEHSREFPFTFGTGTKLEIK
notes: human constant region; also called CD81K04 (chimeric form)
B9: CD81K04 HC GG-01-hVH_5_51 / LC CD81K04 (antibody, V domains shown)
VH: EVQLVQSGAEVKKPGESLKISCKGSGYSFSSSWMNWVRQMPGKGLEWMGRIYSGDGDAIYSPSFQGQVTISADKSISTAYLQLSSLKASDTAMYYCAREGKTGDLLLRSWGQGTLVTVSS
VL: DIVLTQSPASLSVSLGQRATISCRASKSVSTSIYSYMHWYQQKPGQPPKLLIKYASYLESGVPARFSGSGSGTDFTLNIHPVEEEDAATYYCEHSREFPFTFGTGTKLEIK
notes: human constant region
B10: CD81K04 HC JA_GG-14-hVH_1_69-GA / LC CD81K04 (antibody, V domains shown)
VH: QVQLVQSGAEVKKPGSSVKVSCKASGYTFSSSWMNWVRQAPGQGLEWMGRIYSGDGDAIYNGKFKGKATITADESTSTAYMELSSLRSEDTAVYYCAREGKTGDLLLRSWGQGTLVTVSS
VL: DIVLTQSPASLSVSLGQRATISCRASKSVSTSIYSYMHWYQQKPGQPPKLLIKYASYLESGVPARFSGSGSGTDFTLNIHPVEEEDAATYYCEHSREFPFTFGTGTKLEIK
notes: human constant region
B11: CD81K04 HC JA_GG-15-hVH_1_3 / LC CD81K04 (antibody, V domains shown)
VH: QVQLVQSGAEVKKPGASVKVSCKASGYTFSSSWMNWVRQAPGQRLEWMGRIYSGDGDAIYNGKFKGRVTITADTSASTAYMELSSLRSEDTAVYYCAREGKTGDLLLRSWGQGTLVTVSS
VL: DIVLTQSPASLSVSLGQRATISCRASKSVSTSIYSYMHWYQQKPGQPPKLLIKYASYLESGVPARFSGSGSGTDFTLNIHPVEEEDAATYYCEHSREFPFTFGTGTKLEIK
notes: human constant region
B12: CD81K04 HC K04_JA-13-hVH_1_3 / LC CD81K04 (antibody, V domains shown)
VH: QVQLVQSGAEVKKPGASVKVSCKASGYTFSSSWMNWVRQAPGQRLEWMGRIYSGDGDAIYNGKFKGRVTITRDTSASTAYMELSSLRSEDTAVYYCAREGKTGDLLLRSWGQGTLVTVSS
VL: DIVLTQSPASLSVSLGQRATISCRASKSVSTSIYSYMHWYQQKPGQPPKLLIKYASYLESGVPARFSGSGSGTDFTLNIHPVEEEDAATYYCEHSREFPFTFGTGTKLEIK
notes: human constant region
B13: CD81K04 HC GG-07-hVH_5_51 / LC CD81K04 (antibody, V domains shown)
VH: EVQLVQSGAEVKKPGESLKISCKGSGYSFSSSWMCWVRQMPGKGLEWMGCIYSGDGDAIYSPSFQGQVTISADKSISTAYLQLSSLKASDTAMYYCAREGKTGDLLLRSWGQGTLVTVSS
VL: DIVLTQSPASLSVSLGQRATISCRASKSVSTSIYSYMHWYQQKPGQPPKLLIKYASYLESGVPARFSGSGSGTDFTLNIHPVEEEDAATYYCEHSREFPFTFGTGTKLEIK
notes: human constant region
B14: CD81K04 HC JA_GG-14-hVH_1_69 / LC CD81K04 (antibody, V domains shown)
VH: QVQLVQSGAEVKKPGSSVKVSCKASGYTFSSSWMNWVRQAPGQGLEWMGRIYSGDGDAIYNGKFKGKATITADESTSTAYMELSSLRSEDTAVYYCAREGKTGDLLLRSWGQGTLVTVSS
VL: DIVLTQSPASLSVSLGQRATISCRASKSVSTSIYSYMHWYQQKPGQPPKLLIKYASYLESGVPARFSGSGSGTDFTLNIHPVEEEDAATYYCEHSREFPFTFGTGTKLEIK
notes: human constant region
B15: CD81K04 HC JA_GG-16-hVH_1_3 / LC CD81K04 (antibody, V domains shown)
VH: QVQLVQSGAEVKKPGASVKVSCKASGYTFSSSWMNWVRQAPGQGLEWMGRIYSGDGDAIYNGKFKGRVTITADTSASTAYMELSSLRSEDTAVYYCAREGKTGDLLLRSWGQGTLVTVSS
VL: DIVLTQSPASLSVSLGQRATISCRASKSVSTSIYSYMHWYQQKPGQPPKLLIKYASYLESGVPARFSGSGSGTDFTLNIHPVEEEDAATYYCEHSREFPFTFGTGTKLEIK
notes: human constant region

The target of the assay is T1, CD81. Nature of the assay: cell ELISA.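 Note: antibody binding to HuH7 cells expressing CD81 versus a CD81-negative HuH7 control line, bound antibody detected by secondary reagent, absorbance at 450 nm with 620 nm reference.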
B1 gave an ELISA data of 0.185.

With B2, the ELISA data turned out to be 0.785.

The molecule B3 had an ELISA data of 1.06.

Consider B4, for which the ELISA data amounted to 0.081.

On to B5, for which the ELISA data came to 0.186.

B6 registered an ELISA data of 0.129.

As to B7, the ELISA data is 0.998.

For B8, the ELISA data was 1.14.

With B9, the ELISA data came out at 0.082.

B10 yielded an ELISA data of 0.877.

As for B11, the ELISA data amounted to 1.

B12 gave an ELISA data of 0.974.

B13 yielded an ELISA data of 0.233.

Turning to B14, the ELISA data was 0.996.

B15 had an ELISA data of 0.98.
